Reference: PMC2861366 (Biochemistry, 2010)
Several values for one entry are separate records, joined by “and”; a condition that tells them apart may be missing. Equal entries are not always repeated. Where two headings read alike, the source gives them in different places.

B1: E. coli PriA helicase (enzyme, UniProt P17888 1-732, looked up)
chain: MPVAHVALPVPLPRTFDYLLPEGMTVKAGCRVRVPFGKQQERIGIVVSVSDASELPLNELKAVVEVLDSEPVFTHSVWRLLLWAADYYHHPIGDVLFHALPILLRQGRPAANAPMWYWFATEQGQAVDLNSLKRSPKQQQALAALRQGKIWRDQVATLEFNDAALQALRKKGLCDLASETPEFSDWRTNYAVSGERLRLNTEQATAVGAIHSAADTFSAWLLAGVTGSGKTEVYLSVLENVLAQGKQALVMVPEIGLTPQTIARFRERFNAPVEVLHSGLNDSERLSAWLKAKNGEAAIVIGTRSALFTPFKNLGVIVIDEEHDSSYKQQEGWRYHARDLAVYRAHSEQIPIILGSATPALETLCNVQQKKYRLLRLTRRAGNARPAIQHVLDLKGQKVQAGLAPALITRMRQHLQADNQVILFLNRRGFAPALLCHDCGWIAECPRCDHYYTLHQAQHHLRCHHCDSQRPVPRQCPSCGSTHLVPVGLGTEQLEQTLAPLFPGVPISRIDRDTTSRKGALEQQLAEVHRGGARILIGTQMLAKGHHFPDVTLVALLDVDGALFSADFRSAERFAQLYTQVAGRAGRAGKQGEVVLQTHHPEHPLLQTLLYKGYDAFAEQALAERRMMQLPPWTSHVIVRAEDHNNQHAPLFLQQLRNLILSSPLADEKLWVLGPVPALAPKRGGRWRWQILLQHPSRVRLQHIINGTLALINTIPDSRKVKWVLDVDPIEG

Tests used:
[1] = biological target: E. coli single stranded DNA binding (SSB) protein (E. coli, UniProt P0AGE0 1-178); assay: AUC
E. coli single stranded DNA binding (SSB) protein, sequence (P0AGE0 whole entry): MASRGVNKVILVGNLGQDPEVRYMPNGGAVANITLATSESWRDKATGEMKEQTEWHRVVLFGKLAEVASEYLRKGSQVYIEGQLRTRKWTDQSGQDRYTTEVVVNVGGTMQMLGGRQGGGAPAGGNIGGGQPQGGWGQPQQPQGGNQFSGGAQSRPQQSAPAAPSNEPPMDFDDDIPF

[2] = biological target: T1, χ subunit of DNA polymerase III holoenzyme (E. coli, UniProt P28905 1-147); assay: ITC
T1 sequence (P28905 whole entry): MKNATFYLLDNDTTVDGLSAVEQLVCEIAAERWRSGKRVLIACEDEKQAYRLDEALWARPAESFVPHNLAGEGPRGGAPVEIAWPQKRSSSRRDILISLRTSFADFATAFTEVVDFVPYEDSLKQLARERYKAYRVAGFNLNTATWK

E. coli PriA helicase [3] = biological target: B1; assay: ITC
E. coli PriA helicase [4] = biological target: B1; assay: ITC; remark: listed apart in the source
[5] = biological target: T1, χ subunit of DNA polymerase III …; assay: ITC; remark: listed apart in the source
E. coli PriA helicase [6] = biological target: B1; assay: ITC; remark: listed apart in the source
[7] = biological target: T1, χ subunit of DNA polymerase III …; assay: ITC; remark: listed apart in the source
E. coli PriA helicase [8] = biological target: B1; assay: ITC; remark: listed apart in the source
E. coli PriA helicase [9] = biological target: B1; assay: ITC; remark: listed apart in the source
[10] = biological target: T1, χ subunit of DNA polymerase III …; assay: ITC; remark: listed apart in the source
E. coli PriA helicase [11] = biological target: B1; assay: ITC; remark: listed apart in the source

## B1
[1]
  stoichiometry N: ≥ 3

## WMDFDDDIPF [WP9, modified P9 peptide containing a Trp residue on the N terminal side]
[2]
  Ka: 1.2e+06 M⁻¹
  dH: -8 ± 0.3 kcal/mol
  stoichiometry N: 1.02 ± 0.03
E. coli PriA helicase [3]
  Ka: 1.6e+06 M⁻¹
  dH: -14.5 ± 0.5 kcal/mol
  stoichiometry N: 0.95 ± 0.02
E. coli PriA helicase [4]
  Ka: 410000 M⁻¹ and 404000 M⁻¹
  dH: -13.9 kcal/mol and -14.4 kcal/mol
  stoichiometry N: 0.91 ± 0.11
[5]
  Ka: 1.6e+06 M⁻¹
E. coli PriA helicase [6]
  Ka: 3.4e+06 M⁻¹
  dH: -17.6 ± 0.2 kcal/mol
[7]
  Ka: 300000 M⁻¹
  dH: -9.2 ± 0.4 kcal/mol
  stoichiometry N: 0.96 ± 0.03
E. coli PriA helicase [8]
  Ka: 230000 M⁻¹
  dH: -13 ± 1.3 kcal/mol
  stoichiometry N: 1.1 ± 0.1
E. coli PriA helicase [9]
  Ka: 225000 M⁻¹
  dH: -13.7 ± 0.2 kcal/mol
  stoichiometry N: 1.01 ± 0.1

## MDFDDDIPF [P9, synthetic peptide of the last 9 amino acids of the SSB C-terminus]
[10]
  Ka: 800000 M⁻¹
  dH: -8.2 ± 0.4 kcal/mol
  stoichiometry N: 0.92 ± 0.04
E. coli PriA helicase [11]
  Ka: 2e+06 M⁻¹
  dH: -6.7 ± 0.3 kcal/mol
  stoichiometry N: 0.89 ± 0.05
[2]
  Ka: 1.6e+06 M⁻¹
  dH: -7.9 ± 0.4 kcal/mol
  stoichiometry N: 1 ± 0.1
E. coli PriA helicase [8]
  Ka: 180000 M⁻¹
  dH: -17.3 ± 0.6 kcal/mol
  stoichiometry N: 0.81 ± 0.12

## PSNEPPMDFDDDIPF [P15, synthetic peptide of the last 15 amino acids of the SSB C-terminus]
[10]
  Ka: 800000 M⁻¹
  dH: -7.7 ± 0.4 kcal/mol
  stoichiometry N: 0.88 ± 0.04
E. coli PriA helicase [11]
  Ka: 1.6e+06 M⁻¹
  dH: -7 ± 0.5 kcal/mol
  stoichiometry N: 1.03 ± 0.06
[2]
  Ka: 1.5e+06 M⁻¹
  dH: -9.5 ± 0.3 kcal/mol
  stoichiometry N: 0.91 ± 0.02
E. coli PriA helicase [3]
  Ka: 2.7e+06 M⁻¹
  dH: -20.7 ± 0.8 kcal/mol
  stoichiometry N: 0.9 ± 0.02
E. coli PriA helicase [8]
  Ka: 360000 M⁻¹
  dH: -14 ± 0.6 kcal/mol
  stoichiometry N: 0.92 ± 0.03
